Test results: the supplement of paper PMC7125110
± gives the standard error. For some assays here: This sample holds only a part of the variants without activity.

B1: glmS ribozyme (parent)
chain: AUAAAAGCGCCAGAACUACAGAAAUGUAGUUGACGAGGAGGAGGUUUAUCGAAUUUUCGGCGGAUGCCUCCAAA

What was measured:
Details in all cases: with glucosamine-6-phosphate
glucosamine-6-phosphate [1] = variants of: B1; assay: kcat; higher = faster cleavage; RNA array
Outline: (§1)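 Glucosamine-6-phosphate, from 40 μM to 10 mM in HEPES/KCl/Mg(OAc)2 buffer, was flowed over sequenced MiSeq chips carrying barcoded ribozyme variants transcribed in situ by E. coli RNA polymerase. A hybridised Cy3 probe tracked the variants at 37 °C as tiles were imaged over ~14 h. kobs, kcat and KM were obtained by fitting normalised per-tile medians to exponential decays and then applying weighted Michaelis–Menten fits across concentrations.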

glucosamine-6-phosphate [2] = variants of: B1; assay: KM; higher = weaker cofactor use; RNA array
Outline: as §1

glucosamine-6-phosphate [3] = variants of: B1; assay: self-cleavage kobs at 40 uM GlcN6P; higher = faster cleavage; RNA array
Outline: as §1

glucosamine-6-phosphate [4] = variants of: B1; assay: self-cleavage kobs at 160 uM GlcN6P; higher = faster cleavage; RNA array
Outline: as §1

glucosamine-6-phosphate [5] = variants of: B1; assay: self-cleavage kobs at 640 uM GlcN6P; higher = faster cleavage; RNA array
Outline: as §1

glucosamine-6-phosphate [6] = variants of: B1; assay: self-cleavage kobs at 2500 uM GlcN6P; higher = faster cleavage; RNA array
Outline: as §1

glucosamine-6-phosphate [7] = variants of: B1; assay: self-cleavage kobs at 10000 uM GlcN6P; higher = faster cleavage; RNA array
Outline: as §1

Variant	kcat (glucosamine-6-phosphate [1]) [s⁻¹]	KM (glucosamine-6-phosphate [2]) [µM]	self-cleavage kobs at 40 uM GlcN6P (glucosamine-6-phosphate [3]) [s⁻¹]	self-cleavage kobs at 160 uM GlcN6P (glucosamine-6-phosphate [4]) [s⁻¹]	self-cleavage kobs at 640 uM GlcN6P (glucosamine-6-phosphate [5]) [s⁻¹]	self-cleavage kobs at 2500 uM GlcN6P (glucosamine-6-phosphate [6]) [s⁻¹]	self-cleavage kobs at 10000 uM GlcN6P (glucosamine-6-phosphate [7]) [s⁻¹]
U56G A64G	0.0177 ± 0.0051	2680 ± 1000	0.000369 ± 6.8e-05	0.000896 ± 0.00017	0.00313 ± 0.00055	0.00817 ± 0.0015	0.0156 ± 0.0037
A15C C16A C68G	2.65e-05 ± 7.2e-06	–	–	–	–	2.94e-05 ± 1.3e-05	–
C16U U57C	0.000329 ± 0.00013	–	–	–	5.65e-05 ± 1.1e-05	8.73e-05 ± 1.7e-05	0.00024 ± 3.4e-05
G37A A52U	5.16e-05 ± 5.1e-06	6790 ± 1600	–	< 1e-05	–	–	3.07e-05 ± 8.4e-06
U30G A53C	0.00231 ± 0.0004	2690 ± 910	–	0.000159 ± 6.4e-05	0.000512 ± 0.0001	0.00138 ± 0.00034	0.00177 ± 0.00022
U30G U45C	0.000451 ± 9.8e-05	–	–	–	0.000201 ± 8.3e-05	0.00024 ± 7.8e-05	0.000435 ± 9.4e-05
A53U C68A	5.43e-05 ± 1.6e-05	–	–	3.62e-05 ± 1e-05	6.67e-05 ± 8.3e-06	6.54e-05 ± 9.8e-06	–
A12C A42G	0.0188 ± 0.0076	–	0.00118 ± 0.00019	0.00222 ± 0.00053	0.00579 ± 0.0016	0.0085 ± 0.0026	0.0248 ± 0.0036
U46G U47A	0.0123 ± 0.0053	–	–	0.00128 ± 0.00029	0.00231 ± 0.00046	0.00836 ± 0.0038	0.0106 ± 0.0026
G29U G41A	0.000207 ± 3.7e-05	1480 ± 620	< 1e-05	–	5.62e-05 ± 1.8e-05	0.000155 ± 3.1e-05	0.000164 ± 4e-05
G29U A39C	0.00147 ± 0.00028	2170 ± 670	2.91e-05 ± 9.8e-06	8.26e-05 ± 1.4e-05	0.000457 ± 5.8e-05	0.000781 ± 0.0001	0.00118 ± 0.00014
G37C U47G U69G	7.04e-05 ± 2.8e-05	–	–	7.9e-05 ± 2.3e-05	5.97e-05 ± 2e-05	0.000138 ± 4.1e-05	–
C67A C71G	7.2e-05 ± 7e-06	–	–	5.48e-05 ± 8.6e-06	6.96e-05 ± 6.6e-06	8.16e-05 ± 8.2e-06	6e-05 ± 6.9e-06
G63C U65G	< 1e-05	–	< 1e-05	< 1e-05	–	–	< 1e-05
U30G G32C	0.000158 ± 2.5e-05	–	–	–	–	0.000149 ± 3e-05	0.000134 ± 1.6e-05
G13C	0.000191 ± 5.2e-06	4220 ± 250	–	–	2.7e-05 ± 1.3e-06	6.98e-05 ± 1.4e-06	0.000135 ± 1.8e-06
G13U	0.00254 ± 0.00046	3670 ± 840	3.52e-05 ± 1.3e-06	0.000104 ± 3.4e-06	0.000355 ± 7.3e-06	0.00118 ± 5e-05	0.00186 ± 5.8e-05
G29U A53G C67G	0.000147 ± 2.6e-05	–	5.1e-05 ± 1.8e-05	6.91e-05 ± 1.9e-05	0.000108 ± 1.9e-05	0.000139 ± 3.6e-05	0.000205 ± 4.9e-05
G66U C68A	6.39e-05 ± 1.2e-05	–	–	3.61e-05 ± 1.6e-05	9.21e-05 ± 2.2e-05	5.77e-05 ± 8.7e-06	–
A12G U30G	8.75e-05 ± 7.1e-06	1830 ± 510	< 1e-05	–	–	5.48e-05 ± 8.9e-06	7.28e-05 ± 7.5e-06
A39C U69C	0.000195 ± 3.5e-05	–	–	–	6.94e-05 ± 1.8e-05	0.000211 ± 3.5e-05	0.000166 ± 1.9e-05
C50G U57A	7.3e-05 ± 1.7e-05	–	3.58e-05 ± 1.6e-05	8.31e-05 ± 1.4e-05	5.84e-05 ± 1.6e-05	6.05e-05 ± 2.7e-05	–
U54G G66A	0.0134 ± 0.0022	1380 ± 320	0.000427 ± 4.8e-05	0.00123 ± 0.00022	0.00385 ± 0.00097	0.00659 ± 0.0015	0.0132 ± 0.0016
G51A C67G	2e-05 ± 6.5e-06	–	–	–	–	–	–
C50G C71G	0.000204 ± 3.9e-05	–	0.000109 ± 9.6e-06	0.000249 ± 4.4e-05	0.000149 ± 2.4e-05	0.000242 ± 3.1e-05	–
C16G U45C	0.0003 ± 7.1e-05	–	–	–	7.2e-05 ± 2.1e-05	0.000367 ± 9.7e-05	0.000243 ± 3.7e-05
G41U G66A	0.00293 ± 0.00055	1820 ± 560	7.21e-05 ± 1.7e-05	0.000253 ± 7.9e-05	0.000701 ± 0.00023	0.00141 ± 0.00028	0.00299 ± 0.00054
A15U U46C	0.000336 ± 2.6e-05	1290 ± 210	–	2.98e-05 ± 1.3e-05	0.000111 ± 1.1e-05	0.000249 ± 3.3e-05	0.000288 ± 2.9e-05
A53C C58G	1.56e-05 ± 5.2e-06	–	–	–	–	–	–
A12C C70G	0.000232 ± 6.8e-05	–	–	7.74e-05 ± 1.7e-05	0.000119 ± 1.1e-05	0.000154 ± 1.8e-05	0.000352 ± 4.1e-05
